{"source": "FireProtDB (doi:10.1110/ps.03176803)", "settings": "Kitasatospora aureofaciens; pH 7; Thermal; DSC; PIPES 0.03 M; reversible: yes (90-95%); whole UniProt chain shown"}
{"protein": "Guanyl-specific ribonuclease Sa wild type, P05798 (protein) DVSGTVCLSALPPEATDTLNLIASDGPFPYSQDGVVFQNRESVLPTQSYGYYHEYTVITPGARTRGTRRIITGEATQEDYYTGDHYATFSLIDQTC", "values": [{"measurement": "Tm", "result": 49, "unit": "°C"}, {"measurement": "unfolding enthalpy (calorimetric)", "result": 92, "unit": "kcal/mol"}, {"measurement": "unfolding enthalpy (van 't Hoff)", "result": 103, "unit": "kcal/mol"}]}
